Test results from article PMC6131548, “Molecular basis for disassembly of an importin:ribosomal protein complex by the escortin Tsr2” (Nature Communications, 2018).

Tests used:
Conditions in all cases: both partners purified
Tsr2-N (NMR) = target: T1, Tsr2-N (NMR) (S. cerevisiae (yeast), UniProt Q06672 1-152); test: NMR titration; stepwise titration of the unlabeled component to the labeled one (Tsr2-N, ESS2 peptide), followed by 2D 15N,1H-HSQC; 293.15 K, NMR buffer
T1 construct: Used unlabeled or 13C,15N-labeled; also called N-terminal domain of Tsr2; source: E. coli BL21 (DE3) CodonPlus-RIL, purified (HisTrap, TEV, Superdex 75); not shown: (His)6-tagged GB1 domain, N-terminal, cleaved
T1 sequence (looked up): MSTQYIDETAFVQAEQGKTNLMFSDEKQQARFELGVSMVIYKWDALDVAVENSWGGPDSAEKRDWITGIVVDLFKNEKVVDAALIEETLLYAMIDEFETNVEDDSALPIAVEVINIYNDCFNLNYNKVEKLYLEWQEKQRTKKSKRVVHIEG

hTsr2E64G (ITC) = target: T2, hTsr2E64G (ITC) (human, UniProt Q969E8 1-191, E64G); test: ITC; VP-ITC; 20–40 µM Tsr2 variant in the cell, 400–800 µM ESS2 peptide in the syringe; 25 °C, 20 mM NaPi pH 7.1, 1 mM DTT, 10 µM EDTA
T2 construct: human Tsr2 with the Diamond-Blackfan anemia-linked mutation E64G; also called E64G-DBA variant; hTsr2E64G mutant; source: E. coli BL21
T2 sequence (looked up): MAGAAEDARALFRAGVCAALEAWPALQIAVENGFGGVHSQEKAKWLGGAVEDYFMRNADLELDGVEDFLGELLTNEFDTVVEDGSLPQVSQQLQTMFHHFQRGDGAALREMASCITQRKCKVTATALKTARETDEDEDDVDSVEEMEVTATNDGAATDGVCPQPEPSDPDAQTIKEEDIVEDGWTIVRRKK

hTsr2 (ITC) = target: T3, hTsr2 (ITC) (human, UniProt Q969E8 1-191); test: as above
T3 construct: human Tsr2; probably made like the NMR constructs; also called WT hTsr2; human Tsr2; source: E. coli BL21
T3 sequence (looked up): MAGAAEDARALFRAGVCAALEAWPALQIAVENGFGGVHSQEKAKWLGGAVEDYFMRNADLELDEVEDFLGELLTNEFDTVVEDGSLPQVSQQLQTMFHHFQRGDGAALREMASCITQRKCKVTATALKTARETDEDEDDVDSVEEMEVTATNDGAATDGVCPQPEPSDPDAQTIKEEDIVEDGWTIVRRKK

[1] = target: T4, Tsr2 of the recombinant Tsr2:eS26 complex (XL-MS) (S. cerevisiae (yeast), UniProt Q06672 1-205); test: cross-linking; recombinant Tsr2:eS26 complex, 1 mg/ml in 50 mM HEPES; DSS, PDH/DMTMM or ADH/DMTMM, 37 °C; digestion, SEC, LC-MS/MS (XL-MS)
T4 construct: Tsr2, S. cerevisiae; source: recombinant Tsr2:eS26 complex, 1 mg/ml in 50 mM HEPES
T4 sequence (looked up): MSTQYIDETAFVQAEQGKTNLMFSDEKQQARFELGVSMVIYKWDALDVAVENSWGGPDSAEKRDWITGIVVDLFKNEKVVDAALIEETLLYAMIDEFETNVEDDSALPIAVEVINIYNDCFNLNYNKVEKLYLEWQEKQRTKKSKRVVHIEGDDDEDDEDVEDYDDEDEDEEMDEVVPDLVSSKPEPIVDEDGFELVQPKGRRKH

B1: ESS2 peptide (peptide, UniProt P39938 100-119, looked up)
peptide: RPRFNRENKVSPADAAKKAL
notes: eukaryotic-specific segment 2 of eS26 (Rps26A), S. cerevisiae, residues 100-119 as deposited; ESS2 is defined as 99-119 in the results, the deposited peptide as 100-119; also called eS26-ESS2; S26A(100-119); source: E. coli BL21 (DE3) CodonPlus-RIL, cleaved from (His)6-GB1 by TEV, purified by reverse-phase HPLC (C8); not shown: (His)6-tagged GB1 domain, N-terminal, cleaved
B1: binds (Tsr2-N (NMR)).

B2: human ESS2 peptide (peptide)
chain: RFRPAGAAPRPPPKPM
modifications: Human limits are not printed. They are taken by ungapped alignment to the yeast ESS2 construct in PDB 6G04 (eS26 residues 100-119; the text defines ESS2 as 99-119), running to the human C-terminus. …
For B2, the Kd (hTsr2E64G (ITC)) was 90 µM and the Kd (hTsr2 (ITC)) was 2 µM.

B3: eS26 of the recombinant Tsr2:eS26 complex (XL-MS) (natural protein)
chain: not shown
notes: ribosomal protein eS26 (Rps26A), S. cerevisiae; source: recombinant Tsr2:eS26 complex, 1 mg/ml in 50 mM HEPES
B3: binds [1].
